Results from article PMC6066450.

Molecular target: Neurabin (Nrb), endogenous in rat cortical neurons (rat (endogenous in primary cortical neurons)) (UniProt O35867)
Assay: co-IP

Sequence of UniProt O35867 (O35867 whole entry): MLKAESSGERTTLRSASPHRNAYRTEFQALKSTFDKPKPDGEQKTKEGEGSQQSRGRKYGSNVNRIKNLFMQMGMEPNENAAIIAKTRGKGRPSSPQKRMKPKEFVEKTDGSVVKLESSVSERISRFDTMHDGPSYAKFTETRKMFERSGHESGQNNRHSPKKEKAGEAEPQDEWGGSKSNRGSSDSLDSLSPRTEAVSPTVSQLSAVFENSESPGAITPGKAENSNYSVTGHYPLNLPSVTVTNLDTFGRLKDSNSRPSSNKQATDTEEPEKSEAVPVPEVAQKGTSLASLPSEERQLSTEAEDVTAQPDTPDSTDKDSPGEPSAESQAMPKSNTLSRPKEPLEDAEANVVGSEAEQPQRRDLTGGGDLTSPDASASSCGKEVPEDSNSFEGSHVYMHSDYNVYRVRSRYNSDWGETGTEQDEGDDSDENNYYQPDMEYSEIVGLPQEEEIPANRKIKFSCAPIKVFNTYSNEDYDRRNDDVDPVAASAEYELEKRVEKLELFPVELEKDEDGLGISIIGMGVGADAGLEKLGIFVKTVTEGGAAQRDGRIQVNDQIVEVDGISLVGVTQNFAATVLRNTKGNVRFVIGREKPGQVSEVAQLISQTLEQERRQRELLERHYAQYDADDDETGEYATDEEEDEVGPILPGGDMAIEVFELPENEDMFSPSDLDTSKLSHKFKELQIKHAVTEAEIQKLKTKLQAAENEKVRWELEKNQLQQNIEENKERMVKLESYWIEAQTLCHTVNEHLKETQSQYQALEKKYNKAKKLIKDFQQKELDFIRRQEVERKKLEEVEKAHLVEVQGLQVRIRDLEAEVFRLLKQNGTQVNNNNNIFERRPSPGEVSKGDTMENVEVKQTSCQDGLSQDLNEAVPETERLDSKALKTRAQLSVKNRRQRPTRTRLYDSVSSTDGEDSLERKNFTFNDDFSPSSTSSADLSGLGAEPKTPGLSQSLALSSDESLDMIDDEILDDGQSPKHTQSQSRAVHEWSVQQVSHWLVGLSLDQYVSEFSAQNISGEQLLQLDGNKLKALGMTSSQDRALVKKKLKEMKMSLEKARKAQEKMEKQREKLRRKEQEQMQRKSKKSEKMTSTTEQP

- PP1 co-IPed with Nrb after forskolin, percent of no forskolin control: 62.8%
Substance: Protein phosphatase-1 (PP1), endogenous in rat cortical neurons (from UniProt P62138 1-330) (enzyme)
